In the supplement of paper PMC9112550, “Optimization of the antimicrobial peptide Bac7 by deep mutational scanning” (BMC Biology, 2022):

Test system: Escherichia coli TOP10
Experiment: shrunken log2 fold change of peptide-encoding DNA abundance (4.5 h post-induction vs induction); higher = less antimicrobial activity (less host growth inhibition)
Conditions: time post-induction: 4.5 h; library: site-saturation at positions 5, 18, 19, 20
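Note: peptides expressed intracellularly from a pBAD plasmid library in pooled LB shake-flask culture, induced with 0.3% L-arabinose, DNA abundance read by NGS, three biological replicates, DESeq2 with apeglm shrinkage.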

Row | Sequence | shrunken log2 fold change
1 | RRIRRRPPRLPRPRPRPPEYPRP | 0.0513
2 | RRIRERPPRLPRPRPRPQQLPRP | -0.178
3 | RRIRLRPPRLPRPRPRPAGDPRP | 0.297
4 | RRIRNRPPRLPRPRPRPTATPRP | 0.433
5 | RRIRKRPPRLPRPRPRPSPKPRP | 0.057
6 | RRIRIRPPRLPRPRPRPRRMPRP | -0.12
7 | RRIRARPPRLPRPRPRPWLNPRP | -0.175
8 | RRIRRRPPRLPRPRPRPSNPPRP | -0.203
9 | RRIRQRPPRLPRPRPRPTIRPRP | -0.219
10 | RRIRSRPPRLPRPRPRPGPNPRP | -0.0665
11 | RRIRLRPPRLPRPRPRPFHYPRP | -0.211
12 | RRIRYRPPRLPRPRPRPMMTPRP | -0.111
13 | RRIRQRPPRLPRPRPRPCPKPRP | 4.03
14 | RRIRHRPPRLPRPRPRPIHKPRP | -1.25
15 | RRIRTRPPRLPRPRPRPLERPRP | -0.0732
16 | RRIRWRPPRLPRPRPRPHLVPRP | 0.392
17 | RRIRFRPPRLPRPRPRPDSDPRP | -0.0137
18 | RRIRRRPPRLPRPRPRPFKAPRP | 0.182
19 | RRIRWRPPRLPRPRPRPHGYPRP | -0.018
20 | RRIRIRPPRLPRPRPRPHYPPRP | -0.32
21 | RRIRNRPPRLPRPRPRPAADPRP | 0.342
22 | RRIRYRPPRLPRPRPRPMCAPRP | -0.208
23 | RRIRSRPPRLPRPRPRPFHKPRP | -0.0363
24 | RRIRQRPPRLPRPRPRPPMEPRP | -0.22
25 | RRIRCRPPRLPRPRPRPNLDPRP | -0.478

Row | Sequence | shrunken log2 fold change
26 | RRIRERPPRLPRPRPRPLYWPRP | -0.383
27 | RRIRSRPPRLPRPRPRPRESPRP | 0.092
28 | RRIRGRPPRLPRPRPRPQWCPRP | 0.216
29 | RRIRFRPPRLPRPRPRPYYWPRP | -0.485
30 | RRIRARPPRLPRPRPRPTGPPRP | 0.284
31 | RRIRFRPPRLPRPRPRPFCRPRP | -0.316
32 | RRIRPRPPRLPRPRPRPQTKPRP | -0.0309
33 | RRIRKRPPRLPRPRPRPAIHPRP | -0.0696
34 | RRIRCRPPRLPRPRPRPTMFPRP | -0.2
35 | RRIRYRPPRLPRPRPRPLRSPRP | 0.538
36 | RRIRPRPPRLPRPRPRPLWYPRP | -0.496
37 | RRIRVRPPRLPRPRPRPPIGPRP | 0.174
38 | RRIRARPPRLPRPRPRPEFGPRP | 0.874
39 | RRIRMRPPRLPRPRPRPKGVPRP | 1.1
40 | RRIRYRPPRLPRPRPRPKYQPRP | -0.213
41 | RRIRLRPPRLPRPRPRPLDFPRP | -0.162
42 | RRIRYRPPRLPRPRPRPHENPRP | -0.212
43 | RRIRARPPRLPRPRPRPNVFPRP | 0.258
44 | RRIRGRPPRLPRPRPRPWCFPRP | 0.212
45 | RRIRTRPPRLPRPRPRPEHVPRP | 0.0823
46 | RRIRKRPPRLPRPRPRPIIQPRP | 0.0837
47 | RRIRTRPPRLPRPRPRPYNTPRP | -0.737
48 | RRIRLRPPRLPRPRPRPFEYPRP | -0.0121
49 | RRIRSRPPRLPRPRPRPERSPRP | 0.206
50 | RRIRSRPPRLPRPRPRPNYYPRP | -0.822

Row | Sequence | shrunken log2 fold change
51 | RRIRVRPPRLPRPRPRPQQCPRP | 0.145
52 | RRIRKRPPRLPRPRPRPIDPPRP | -0.0828
53 | RRIRERPPRLPRPRPRPIIYPRP | -0.412
54 | RRIRCRPPRLPRPRPRPWCGPRP | -0.288
55 | RRIRPRPPRLPRPRPRPHHLPRP | -0.0444
56 | RRIRDRPPRLPRPRPRPHYEPRP | -0.0202
57 | RRIRARPPRLPRPRPRPLLSPRP | 0.367
58 | RRIRDRPPRLPRPRPRPLGEPRP | 0.147
59 | RRIRFRPPRLPRPRPRPVSDPRP | 0.00637
60 | RRIRGRPPRLPRPRPRPSFGPRP | 0.0834
61 | RRIRVRPPRLPRPRPRPKGVPRP | 0.472
62 | RRIRWRPPRLPRPRPRPWWLPRP | 0.162
63 | RRIRQRPPRLPRPRPRPLPSPRP | -0.0393
64 | RRIRIRPPRLPRPRPRPTKRPRP | -0.0508
65 | RRIRWRPPRLPRPRPRPYKSPRP | -0.144
66 | RRIRMRPPRLPRPRPRPTKHPRP | 0.17
67 | RRIRCRPPRLPRPRPRPQSQPRP | 0.131
68 | RRIRSRPPRLPRPRPRPDTMPRP | -0.462
69 | RRIRGRPPRLPRPRPRPAERPRP | 0.388
70 | RRIRMRPPRLPRPRPRPSEQPRP | -0.0153
71 | RRIRNRPPRLPRPRPRPCQWPRP | 0.0401
72 | RRIRIRPPRLPRPRPRPDSPPRP | -0.0466
73 | RRIRNRPPRLPRPRPRPMQMPRP | 0.0963
74 | RRIRQRPPRLPRPRPRPMWYPRP | -0.298
75 | RRIRNRPPRLPRPRPRPYASPRP | -0.397

Row | Sequence | shrunken log2 fold change
76 | RRIRGRPPRLPRPRPRPHPKPRP | 0.865
77 | RRIRFRPPRLPRPRPRPFLWPRP | -0.0874
78 | RRIRYRPPRLPRPRPRPPPLPRP | 0.616
79 | RRIRIRPPRLPRPRPRPNRPPRP | -0.212
80 | RRIRPRPPRLPRPRPRPIITPRP | -0.587
81 | RRIRLRPPRLPRPRPRPDHPPRP | -0.123
82 | RRIRFRPPRLPRPRPRPLMDPRP | -0.0516
83 | RRIRCRPPRLPRPRPRPVNLPRP | 2.47
84 | RRIRARPPRLPRPRPRPNFTPRP | 0.134
85 | RRIRYRPPRLPRPRPRPAKHPRP | -0.912
86 | RRIRIRPPRLPRPRPRPTICPRP | -0.191
87 | RRIRVRPPRLPRPRPRPFIDPRP | 0.0294
88 | RRIRLRPPRLPRPRPRPMQRPRP | 0.0784
89 | RRIRHRPPRLPRPRPRPMTHPRP | -0.235
90 | RRIRCRPPRLPRPRPRPVWHPRP | 0.127
91 | RRIRWRPPRLPRPRPRPYPDPRP | -0.106
92 | RRIRDRPPRLPRPRPRPPCHPRP | -0.363
93 | RRIRYRPPRLPRPRPRPGDTPRP | -0.276
94 | RRIRDRPPRLPRPRPRPSHPPRP | -0.425
95 | RRIRDRPPRLPRPRPRPHTHPRP | -0.0285
96 | RRIRHRPPRLPRPRPRPLCLPRP | -0.368
97 | RRIRHRPPRLPRPRPRPKNMPRP | -0.231
98 | RRIRSRPPRLPRPRPRPYAGPRP | 0.0441
99 | RRIRLRPPRLPRPRPRPEFIPRP | 0.0915
100 | RRIRKRPPRLPRPRPRPAFSPRP | -0.0331

Row | Sequence | shrunken log2 fold change
101 | RRIRYRPPRLPRPRPRPMNMPRP | -0.139
102 | RRIRRRPPRLPRPRPRPFRCPRP | -0.15
103 | RRIRQRPPRLPRPRPRPSTGPRP | -0.0811
104 | RRIRMRPPRLPRPRPRPHPIPRP | -0.116
105 | RRIRRRPPRLPRPRPRPPQWPRP | 0.66
106 | RRIRNRPPRLPRPRPRPSTDPRP | -0.0474
107 | RRIRSRPPRLPRPRPRPIETPRP | -0.29
108 | RRIRFRPPRLPRPRPRPPHWPRP | 0.617
109 | RRIRPRPPRLPRPRPRPQMHPRP | 0.143
110 | RRIRDRPPRLPRPRPRPMTWPRP | 0.000751
111 | RRIRDRPPRLPRPRPRPKHQPRP | 0.0157
112 | RRIRERPPRLPRPRPRPAGSPRP | -0.202
113 | RRIRKRPPRLPRPRPRPLFLPRP | 0.115
114 | RRIRMRPPRLPRPRPRPQDEPRP | -0.0393
115 | RRIRQRPPRLPRPRPRPMHEPRP | 0.187
116 | RRIRYRPPRLPRPRPRPDFFPRP | 0.373
117 | RRIRARPPRLPRPRPRPMTGPRP | 0.0159
118 | RRIRERPPRLPRPRPRPEACPRP | -0.0166
119 | RRIRPRPPRLPRPRPRPTIKPRP | -0.313
120 | RRIRTRPPRLPRPRPRPEGIPRP | 0.0215
121 | RRIRDRPPRLPRPRPRPPFMPRP | 0.042
122 | RRIRNRPPRLPRPRPRPLCTPRP | -0.194
123 | RRIRVRPPRLPRPRPRPNEDPRP | -0.168
124 | RRIRNRPPRLPRPRPRPIEAPRP | 0.0895
125 | RRIRQRPPRLPRPRPRPTIEPRP | 0.0419

Row | Sequence | shrunken log2 fold change
126 | RRIRDRPPRLPRPRPRPHIKPRP | -0.598
127 | RRIRCRPPRLPRPRPRPSDGPRP | -0.0084
128 | RRIRSRPPRLPRPRPRPQKVPRP | -0.203
129 | RRIRRRPPRLPRPRPRPVHAPRP | 0.67
130 | RRIRARPPRLPRPRPRPIHEPRP | -0.0242
131 | RRIRDRPPRLPRPRPRPPGSPRP | 0.511
132 | RRIRSRPPRLPRPRPRPHLDPRP | -0.156
133 | RRIRARPPRLPRPRPRPKFVPRP | 0.301
134 | RRIRKRPPRLPRPRPRPWMHPRP | 0.00994
135 | RRIRYRPPRLPRPRPRPEYDPRP | -0.104
136 | RRIRFRPPRLPRPRPRPEVMPRP | -0.0905
137 | RRIRERPPRLPRPRPRPCNNPRP | -0.768
138 | RRIRNRPPRLPRPRPRPDISPRP | 0.000389
139 | RRIRLRPPRLPRPRPRPHNPPRP | -0.883
140 | RRIRHRPPRLPRPRPRPQRNPRP | -0.223
141 | RRIRQRPPRLPRPRPRPIGEPRP | -0.0171
142 | RRIRFRPPRLPRPRPRPSWTPRP | -0.561
143 | RRIRARPPRLPRPRPRPLIGPRP | 0.107
144 | RRIRSRPPRLPRPRPRPKNAPRP | 0.196
145 | RRIRCRPPRLPRPRPRPIWVPRP | -0.0515
146 | RRIRQRPPRLPRPRPRPMNQPRP | -0.437
147 | RRIRRRPPRLPRPRPRPWLIPRP | -0.319
148 | RRIRLRPPRLPRPRPRPYNHPRP | -0.669
149 | RRIRYRPPRLPRPRPRPSYRPRP | -0.0896
150 | RRIRHRPPRLPRPRPRPFDKPRP | -0.118
